Laboratory results from paper PMC7272640, “Molecular docking, synthesis and biological evaluation of Vascular Endothelial Growth Factor (VEGF) B based peptide as antiangiogenic agent targeting the second domain of the Vascular Endothelial Growth Factor Receptor 1 (VEGFR1D2) for anticancer application” (Signal Transduction and Targeted Therapy, 2020).
Blank lines part the entries; values can stand above or below the molecule they belong to. Bridges are numbered along the chain shown (N, C = ends).

Key:
[1] = test system: VEGFR1 versus VEGFR2; settings: cited from earlier work
Source text: Tumor angiogenesis is regulated by the binding of VEGF to receptors (VEGFRs). The major mediator of tumor angiogenesis is VEGFA, more commonly referred to as VEGF. […] However, the role of the VEGFR1 in VEGF-mediated angiogenesis remains a mystery.

[2] = target: entire extracellular portion of VEGFR1; settings: VEGFA to entire extracellular portion of VEGFR1; no reference given; cited from earlier work
Procedure: (§1) Subsequently, to verify the ability of VGB3 to form a complex with VEGFR1D2, microscale thermophoresis (MST) measurements were performed using a VEGFR1D2-labeled with VGB3 at increasing concentrations. As well as measuring the Kd between VGB3 and its receptor this functional test will also confirm whether the refolded protein VEGFR1D2 assumes the correct conformation. Fluorescently labeled VEGFR1D2 purified and titrated as 1:1 with VGB3.

[3] = target: VEGFR1 D2; settings: quantity not named as Kd in the text; cited from earlier work
Procedure: as §1

[4] = target: VEGFR1 domain 2 (Homo sapiens) (UniProt P17948); settings: cited from earlier work
[5] = target: VEGFR-1 (as used in the ELISA-based displacement assay) (UniProt P17948)
[6] = target: VEGFR-1 (as used in the ELISA-based displacement assay) (UniProt P17948); experiment: ELISA; VEGFR-1-binding ELISA-based displacement assay; displacement of btVEGF165 (100 pM) by VGB3
[7] = target: T1, His-tagged VEGFR1D2 (second extracellular domain of Vascular Endothelial Growth Factor Receptor 1) (UniProt P17948 129-226, fluorescently labeled); experiment: MST; fixed concentration of fluorescently labeled VEGFR1D2; VGB3 titrated at increasing concentrations, initial concentration of ligand 0.25 mM; settings: both partners purified
T1 construct: VEGFR1 (Flt-1), second extracellular domain; The PDB entries are the cited complexes of VEGFR1D2 used for the design, not necessarily the limits of this construct
T1 sequence (P17948 129-226): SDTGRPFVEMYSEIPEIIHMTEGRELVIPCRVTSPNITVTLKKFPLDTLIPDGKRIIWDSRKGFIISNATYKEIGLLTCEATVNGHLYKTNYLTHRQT

Chain of VEGFR-1 (as used in the ELISA-based displacement assay) (P17948 27-1338): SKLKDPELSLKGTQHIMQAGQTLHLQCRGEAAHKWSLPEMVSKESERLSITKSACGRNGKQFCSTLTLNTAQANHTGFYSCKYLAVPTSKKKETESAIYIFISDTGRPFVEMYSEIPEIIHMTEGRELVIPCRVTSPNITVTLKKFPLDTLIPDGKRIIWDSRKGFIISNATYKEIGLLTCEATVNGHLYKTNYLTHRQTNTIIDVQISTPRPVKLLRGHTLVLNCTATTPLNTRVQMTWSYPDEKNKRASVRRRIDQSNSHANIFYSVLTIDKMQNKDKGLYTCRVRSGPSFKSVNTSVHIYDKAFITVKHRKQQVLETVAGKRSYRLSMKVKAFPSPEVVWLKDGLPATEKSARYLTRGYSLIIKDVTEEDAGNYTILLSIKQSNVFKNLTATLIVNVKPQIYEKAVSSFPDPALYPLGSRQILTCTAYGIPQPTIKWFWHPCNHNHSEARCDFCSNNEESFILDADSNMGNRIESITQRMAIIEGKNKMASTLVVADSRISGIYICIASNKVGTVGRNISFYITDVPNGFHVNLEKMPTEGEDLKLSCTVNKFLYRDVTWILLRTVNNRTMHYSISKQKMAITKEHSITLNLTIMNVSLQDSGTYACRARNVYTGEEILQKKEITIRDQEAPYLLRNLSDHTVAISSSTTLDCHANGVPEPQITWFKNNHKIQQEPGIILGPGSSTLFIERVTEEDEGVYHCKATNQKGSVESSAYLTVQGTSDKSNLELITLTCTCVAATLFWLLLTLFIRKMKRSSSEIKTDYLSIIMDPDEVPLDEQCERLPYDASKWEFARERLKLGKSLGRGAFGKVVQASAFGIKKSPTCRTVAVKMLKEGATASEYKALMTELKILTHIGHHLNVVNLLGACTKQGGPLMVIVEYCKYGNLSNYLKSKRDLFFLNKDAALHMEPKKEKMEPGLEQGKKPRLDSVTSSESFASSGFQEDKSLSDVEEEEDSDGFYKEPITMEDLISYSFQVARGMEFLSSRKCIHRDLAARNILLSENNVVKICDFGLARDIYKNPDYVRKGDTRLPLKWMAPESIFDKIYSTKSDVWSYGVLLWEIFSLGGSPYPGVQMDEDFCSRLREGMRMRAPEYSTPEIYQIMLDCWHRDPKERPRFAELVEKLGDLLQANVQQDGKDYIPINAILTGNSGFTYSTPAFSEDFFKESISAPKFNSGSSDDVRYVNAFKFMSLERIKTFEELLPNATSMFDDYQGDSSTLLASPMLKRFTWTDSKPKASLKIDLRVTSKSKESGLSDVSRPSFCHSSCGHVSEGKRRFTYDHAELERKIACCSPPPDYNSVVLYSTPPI
Chain of VEGFR1 domain 2 (Homo sapiens) (P17948 151-214): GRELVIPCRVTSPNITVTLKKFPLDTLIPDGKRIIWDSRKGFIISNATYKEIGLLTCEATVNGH

Molecule: VEGF
affinity of VEGFR1 for VEGF, times higher than VEGFR2 [1]: 10 times
Kd [2]: ~50 nM
tight association between VEGFR1 D2 and VEGF [3]: 113 pM

Molecule: VEGFA (from UniProt P15692)
Kd [4]: 50 nM

inhibition of VEGF165 (0.75 pM)-stimulated proliferation of 4T1 mammary carcinoma cells (MTT assay), IC50 [5]: 30 nM
percent displacement of btVEGF165 (100 pM) at 100 μM VGB3 [6]: 63%
Kd [7]: 1960 ± 690 nM
stoichiometry N [7]: 1
B1: VGB3 (mimetic decapeptide based on VEGFB) (peptide)
peptide: H-ECRPPDDGLC-OH
modifications: disulfide 2-10 (inferred)
notes: VEGFB, strand beta7, printed as 102-ECRP-105; VEGFB, loop connecting beta3 to beta4, printed as 62-PDDGL-66; Cys residue added to the C terminus to make the disulfide bond; also called VGB3 peptide; source: synthetic peptide (solid-phase peptide synthesis)
